From the supplement of paper PMC10598134 come the findings set out here.

± gives the standard deviation.

The nature of this data set: collision cross section of modified peptide (TIMS, N2, iRT-aligned); higher = larger / more extended gas-phase ion. In a few lines:
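Collision cross section was derived from the Mason-Schamp equation. Each value averages 1–3 technical replicates of the most abundant feature per charge state, measured on a timsTOF Pro/HT in dda-PASEF mode (nitrogen, ~2.4 mbar) after a 120-min nanoflow C18 gradient at 60 °C. Synthetic peptide pools (~100 fmol/µL in 2% acetonitrile/0.1% formic acid, iRT standard spiked 1:40) were identified with MaxQuant, and 1/K0 was calibrated with three reference ions and aligned run-wise to the median iRT peptide deviation.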

[1] abbreviates: charge state: 3, modification: Dimethyl (K).
Setting [2] is: charge state: 2, modification: Crotonyl.
Where [3] appears, read: charge state: 3, modification: Crotonyl.
Setting [4] is: charge state: 2, modification: GlyGly (K).
The mark [5] stands for this setting: charge state: 3, modification: GlyGly (K).
The mark [6] stands for this setting: charge state: 2, modification: Butyryl.
The mark [7] stands for this setting: charge state: 2, modification: hydroxyisobutyryl.
Where [8] appears, read: charge state: 3, modification: hydroxyisobutyryl.
Where [9] appears, read: charge state: 3, modification: Methyl (R).
Setting [10] is: charge state: 3, modification: HexNAc (ST).
Setting [11] is: charge state: 2, modification: Hydroxyproline.
The mark [12] stands for this setting: charge state: 2, modification: Methyl (K).
Setting [13] is: charge state: 3, modification: Methyl (K).
Where [14] appears, read: charge state: 2, modification: Biotin.
Setting [15] is: charge state: 2, modification: HexNAc (ST).
[16] abbreviates: charge state: 2, modification: Glutarylation.
[17] abbreviates: charge state: 3, modification: Glutarylation.
Where [18] appears, read: charge state: 3, modification: Citrullination (R).
The mark [19] stands for this setting: charge state: 3, modification: Biotin.
The mark [20] stands for this setting: charge state: 2, modification: Succinyl.
Setting [21] is: charge state: 3, modification: Succinyl.
[22] abbreviates: charge state: 2, modification: Phospho (Y).

On to “SITHSTVGSKGEK [_SITHSTVGSK(Malonyl)GEK_]”, for which the collision cross section reads like this: (charge state: 2, modification: Malonyl) 390.69 ± 2.2 Å²; (charge state: 3, modification: Malonyl) 440.36 ± 2.7 Å².
In the case of “IVEKYGYTHLSAGELLR [_IVEK(Dimethyl (K))YGYTHLSAGELLR_]”, the collision cross section under setting [1] worked out at 550.8 Å².
Turning to “DDSFLGKLGGTLAR [_DDSFLGK(Crotonyl)LGGTLAR_]”, the collision cross section under setting [2] is recorded as 415.37 ± 0.28 Å² and the collision cross section under setting [3] was 492.69 Å².
As for “GTITVSAQELKDNR [_GTITVSAQELK(GlyGly (K))DNR_]”, the collision cross section is, setting by setting: under setting [4], 442.89 ± 0.96 Å²; under setting [5], 487.43 ± 0.34 Å².
Turning to “IHVQSSSDSSDEPAEKR [_IHVQSSSDSSDEPAEK(Butyryl)R_]”, the collision cross section was 452.33 ± 0.51 Å² under setting [6] and 504.47 ± 2.6 Å² (charge state: 3, modification: Butyryl).
“SSFAYKDQNENR [_SSFAYK(GlyGly (K))DQNENR_]” returned a collision cross section under setting [4] of 412.56 ± 1.4 Å² and a collision cross section under setting [5] of 465.62 ± 2 Å².
In turn, “VDVEVPDVSLEGPEGKLK [_VDVEVPDVSLEGPEGK(hydroxyisobutyryl)LK_]” had a collision cross section under setting [7] of 470.57 ± 1.1 Å² and a collision cross section under setting [8] of 549.45 ± 27 Å².
On to TLQKQSVVYGGK [_TLQK(Butyryl)QSVVYGGK_], for which, under setting [6], the collision cross section came to 396.52 ± 0.85 Å².
For the substance LDHLAEKFR [_LDHLAEK(Acetyl (K))FR_], the collision cross section reads like this: (charge state: 2, modification: Acetyl (K)) 371.59 ± 0.95 Å²; (charge state: 3, modification: Acetyl (K)) 438.53 ± 3.2 Å².
As to “GGGYGGDRGGYGGDR [_GGGYGGDR(Methyl (R))GGYGGDR_]”, the collision cross section under setting [9] is recorded as 455.76 ± 1.3 Å².
Substance “IQTVPASHLQQGTASGSSK [_IQTVPASHLQQGTAS(HexNAc (ST))GSSK_]” yielded a collision cross section under setting [10] of 510.18 ± 0.18 Å².
For KFGVLSDNFK [_K(Butyryl)FGVLSDNFK_], the collision cross section under setting [6] is given as 377.44 ± 0.84 Å².
Substance GLQGPPGK [_GLQGPP(Hydroxyproline)GK_] showed a collision cross section under setting [11] of 294.56 ± 0.29 Å².
On to “DYSSGFGGKYGVQADR [_DYSSGFGGK(Dimethyl (K))YGVQADR_]”, for which the collision cross section is recorded as 435.9 ± 1.8 Å² (charge state: 2, modification: Dimethyl (K)) and 488.23 ± 0.74 Å² under setting [1].
Turning to LGNDFHTNKR [_LGNDFHTNK(Methyl (K))R_], the collision cross section stood at 368.02 ± 0.46 Å² under setting [12] and 430.67 ± 6.2 Å² under setting [13].
With TLDEILQEKK [_TLDEILQEK(Methyl (K))K_], the collision cross section under setting [12] stood at 377.9 ± 1.7 Å² and the collision cross section under setting [13] was 432.26 ± 5.2 Å².
As to INNFSADIKDSK [_INNFSADIK(Biotin)DSK_], the collision cross section under setting [14] was 419.19 Å².
With “RFSPPSSSLQPGK [_RFS(HexNAc (ST))PPSSSLQPGK_]”, the collision cross section by setting is: under setting [15], 414.91 ± 1 Å²; under setting [10], 448.47 ± 9.4 Å².
“VGVEVPDVNIEGPEGKLK [_VGVEVPDVNIEGPEGK(hydroxyisobutyryl)LK_]” showed a collision cross section under setting [7] of 459.37 ± 1.3 Å².
GEIGPPGPR [_GEIGPP(Hydroxyproline)GPR_] had a collision cross section under setting [11] of 319.92 ± 1.1 Å².
In the case of “DESFLGKLGGTLAR [_DESFLGK(Crotonyl)LGGTLAR_]”, the collision cross section is, setting by setting: under setting [2], 415.33 ± 0.28 Å²; under setting [3], 492.01 Å².
As for “TTGFYSGFSEVAEKR [_TTGFYSGFSEVAEK(Gluratylation)R_]”, the collision cross section came out at 443.45 ± 0.95 Å² under setting [16] and 517.64 Å² under setting [17].
Turning to “GRGVGSPEPGPTAPYLGR [_GR(Methyl (R))GVGSPEPGPTAPYLGR_]”, the collision cross section under setting [9] stood at 520.34 ± 0.91 Å².
For the substance “VQGGALEDSQLVAGVAFKK [_VQGGALEDSQLVAGVAFK(Dimethyl (K))K_]”, the collision cross section under setting [1] is on record as 554.94 ± 0.79 Å².
As for “AVAITQSPSSVR [_AVAIT(HexNAc (ST))QSPSSVR_]”, the collision cross section under setting [15] is recorded as 390.4 ± 0.13 Å².
The substance “SDSGKPYYYNSQTK [_SDSGK(Crotonyl)PYYYNSQTK_]” came in with a collision cross section under setting [2] of 425.72 ± 0.29 Å².
With “HSPTLPEPGGLRLELPLSR [_HSPTLPEPGGLR(Citrullination (R))LELPLSR_]”, under setting [18], the collision cross section was found to be 513.82 ± 1.9 Å².
With “GLPGLAGDHGEFGEK [_GLP(Hydroxyproline)GLAGDHGEFGEK_]”, the collision cross section under setting [11] turned out to be 432.14 ± 0.34 Å² and the collision cross section (charge state: 3, modification: Hydroxyproline) worked out at 497.67 ± 1.7 Å².
Regarding ASNAAVKLAESK [_ASNAAVK(Biotin)LAESK_], the collision cross section under setting [14] is recorded as 402.96 ± 11 Å² and the collision cross section under setting [19] was found to be 464.87 Å².
On to “SGGGYGGDRGGGYGGDR [_SGGGYGGDR(Citrullination (R))GGGYGGDR_]”, for which the collision cross section was 393.58 ± 0.28 Å² (charge state: 2, modification: Citrullination (R)) and 470.6 ± 4.1 Å² under setting [18].
Take “DASTLQSQKAEGTGDAK [_DASTLQSQK(Crotonyl)AEGTGDAK_]”: the collision cross section runs as follows: under setting [2], 438.12 ± 0.54 Å²; under setting [3], 513.07 ± 2.8 Å².
On to “AAQASDLEKIHLDEK [_AAQASDLEK(Formyl)IHLDEK_]”, for which the collision cross section by setting is: (charge state: 2, modification: Formyl) 452.43 ± 0.71 Å²; (charge state: 3, modification: Formyl) 490.12 ± 2.1 Å².
Consider “PASGAGAGAGAGKR [_PASGAGAGAGAGK(hydroxyisobutyryl)R_]”, for which the collision cross section turned out to be 363.2 ± 0.9 Å² under setting [7] and 470.09 ± 2.8 Å² under setting [8].
Take “VNIGQGSHPQKVK [_VNIGQGSHPQK(Succinyl)VK_]”: the collision cross section under setting [20] worked out at 423.92 ± 1.1 Å² and the collision cross section under setting [21] amounted to 481.33 ± 2 Å².
For the substance “VGTASVLQPVKK [_VGTASVLQPVK(Methyl (K))K_]”, the collision cross section reads like this: under setting [12], 392.83 ± 0.43 Å²; under setting [13], 460.66 ± 3.8 Å².
Under setting [22], “SPASDTYIVFGEAK [_SPASDTY(Phospho (Y))IVFGEAK_]” displayed a collision cross section of 410.05 Å².
Under setting [22], GHYTIGK [_GHY(Phospho (Y))TIGK_] registered a collision cross section of 330.16 ± 0.068 Å².
On to “GEVGAGAGPGAQAGPSAKR [_GEVGAGAGPGAQAGPSAK(Gluratylation)R_]”, for which the collision cross section is, setting by setting: under setting [16], 425.64 ± 1.1 Å²; under setting [17], 490.81 ± 0.95 Å².
In turn, DYNVTANSK [_DY(Nitro (Y))NVTANSK_] displayed a collision cross section (charge state: 2, modification: Nitro (Y)) of 334.81 ± 0.16 Å².
For “GGGGGRGGLHDFR [_GGGGGR(Methyl (R))GGLHDFR_]”, under setting [9], the collision cross section was 457.91 ± 1.5 Å².
Under setting [15], “AQPSASLGVGYR [_AQPSAS(HexNAc (ST))LGVGYR_]” registered a collision cross section of 394.91 ± 0.63 Å².
Consider “VGVEVPDVNIEGPEGKLK [_VGVEVPDVNIEGPEGK(Succinyl)LK_]”, for which the collision cross section by setting is: under setting [20], 461.15 ± 2.6 Å²; under setting [21], 499.18 Å².
In the case of LEQVEKELLR [_LEQVEK(GlyGly (K))ELLR_], the collision cross section under setting [4] came out at 394.68 ± 0.37 Å² and the collision cross section under setting [5] came out at 460.7 ± 1.1 Å².
Take SEASSEFAKK [_SEASSEFAK(Biotin)K_]: under setting [14], the collision cross section was determined as 374.33 Å².
In turn, VYSGHQGR [_VY(Phospho (Y))SGHQGR_] displayed a collision cross section under setting [22] of 330.73 ± 0.068 Å² and a collision cross section (charge state: 3, modification: Phospho (Y)) of 415.14 ± 2.5 Å².
On to “TQAYQDQKPGTSGLR [_TQAYQDQK(Biotin)PGTSGLR_]”, for which the collision cross section reads like this: under setting [14], 446.01 ± 0.23 Å²; under setting [19], 500.74 ± 0.34 Å².
Under setting [6], GEVQVSDKER [_GEVQVSDK(Butyryl)ER_] yielded a collision cross section of 363.29 ± 0.49 Å².
